Test results published in patent US20220356237A1 (UNIVERSITY OF MIAMI, published 2022).
Changes are numbered by the printed parent chain. Values belong to the binder of their own block, whether it stands above or below them.

How the values were obtained:
[1] = target: T1, human secretogranin III (Scg3) (human, UniProt Q8WXD2 20-468, limits assumed); experiment: competition ELISA (excess mAb against Clone 78 scFv) and Octet RED96
T1 construct: also called human Scg3; 1B1075
Description: (§1) Competitive binding to Scg3 was evaluated for Clone 49 and the other anti-Scg3 mAbs described in Table 1. Anti-Scg3 scFv Clone 49 (FIG. 3D) and Clone 78 (FIG. 3E) were expressed and purified. […] Bound scFv was detected by ELISA assay. Binding assays were also performed using an Octet RED96 system (Pall ForteBio), as described in Estep et al., MAbs 2013; 5:270-278.

[2] = target: T1, human secretogranin III (Scg3); experiment: ELISA on immobilised Scg3 and Octet RED96
Description: as §1

[3] = target: T1, human secretogranin III (Scg3); experiment: method not given; protein pulldown with protein G beads at 5 ug/ml each is described in paragraph 100
Description: Protein pulldown. Scg3 (5 μg/ml) was incubated with aflibercept, VEGFR-Fc or VEGFR2-Fc (5 μg/ml) in PBS solution containing 0.5% Triton X-100 and BSA (1 mg/ml) for 1 h at 4° C. Protein G beads (20 μl) were added and incubated at 4° C. for 30 min with end-over-end rotation. The beads were washed three times with PBS by centrifugation, eluted with low pH buffer (100 mM glycine, pH 2.7) and analyzed by Western blot using anti-Scg3 pAb.

T1 sequence (Q8WXD2 20-468 limits assumed): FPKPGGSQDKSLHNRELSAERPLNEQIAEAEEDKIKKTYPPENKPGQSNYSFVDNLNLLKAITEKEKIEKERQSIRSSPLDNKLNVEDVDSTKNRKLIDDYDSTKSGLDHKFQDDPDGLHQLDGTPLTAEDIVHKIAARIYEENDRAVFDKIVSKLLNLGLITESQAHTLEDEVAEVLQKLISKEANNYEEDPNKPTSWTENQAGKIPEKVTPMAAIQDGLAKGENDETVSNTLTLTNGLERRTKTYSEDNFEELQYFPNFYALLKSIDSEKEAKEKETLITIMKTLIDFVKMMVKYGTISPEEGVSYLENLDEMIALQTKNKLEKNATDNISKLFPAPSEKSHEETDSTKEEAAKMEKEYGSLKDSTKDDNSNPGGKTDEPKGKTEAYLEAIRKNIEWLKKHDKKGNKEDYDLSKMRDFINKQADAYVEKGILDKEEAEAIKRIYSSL

B1: anti-Scg3 mAb Clone 153 (antibody, V domains shown)
VH: GRKLQESGPELLKPGASVKISCKTSGYIFSTSWMNWVKQRPGQGLEWIGRIYPGDGHTNYNGKFKDKATLTADKSSSTAYMQLSSLTSVDSAVYFCARSADGYFFVYWGQGTLVTVSA
VL: DIVLTQTPLSLPVSLGDQASISCRSSQSIVHSNGNTYLEWYLQKPGQSPKLLIFKVSKRFSGVPDRFSGSGSGTDFTLKISRVEAEDLGVYHCFQGSHVPPTFGGGTKLEIKR
notes: Monoclonal antibody
binding result [1]: binds

B2: anti-Scg3 mAb Clone 190 (antibody, V domains shown)
VH: B1 VH with G1E, R2V, Q5E, T31S, L113P
VL: B1 VL with L4M, T7S, E84G, V90I, H92Y
notes: Monoclonal antibody; also called CLONE 190 Monoclonal Antibody
binding result [1]: binds

B3: anti-Scg3 mAb Clone 78 (antibody, V domains shown)
VH: B1 VH with G1E, R2V, K3Q, E6Q, T31A, F64I, Y107D
VL: B1 VL with L4M, L9V, S61Y
notes: also called Clone 78 mAb; CLONE 78 Monoclonal Antibody
binding result [2]: binds

B4: anti-Scg3 mAb Clone 162 (antibody, V domains shown)
VH: B1 VH with G1P, R2G, L4A, Q5E, L11M, V89A
VL: B1 VL with S28N, V30I
notes: Monoclonal antibody
binding result [1]: binds

Further lines, results first:

binding result [3]: no binding
B5: aflibercept (Fc fusion, UniProt P17948 129-230, looked up)
chain: SDTGRPFVEMYSEIPEIIHMTEGRELVIPCRVTSPNITVTLKKFPLDTLIPDGKRIIWDSRKGFIISNATYKEIGLLTCEATVNGHLYKTNYLTHRQTNTIIDVVLSPSHGIELSVGEKLVLNCTARTELNVGIDFNWEYPSSKHQHKKLVNRDLKTQSGSEMKKFLSTLTIDGVTRSDQGLYTCAASSGLMTKKNSTFVRVHEK
notes: also called EYLEA; not shown: human IgG Fc

binding result [2]: binds
B6: anti-Scg3 mAb Clone 49 (antibody, V domains shown)
VH: EVKLEESGAELVKPGASVKLSCTASGFNIKDTYMHWVKQRPEQGLEWIGRIDPANGDTKYDPKFQGKATITADTSSNTAYLQLSSLTSEDTAVYYCARNGPGTPWFAYWGQGTLVTVSA
VL: DIQMTQSSSYLSVSLGGRVTITCKASDHINNWLTWYQQKPGNAPRLLISGATSLETGVPSRFSGSGSGKDYTLSITSLQTEDVATYYCQQYWSTPFTFGSGTKLEIKR
notes: also called Clone 49 mAb; CLONE 49 Monoclonal Antibody
